Our source for the IC50 values is patent publication US20240425606A1, “ANTI-IL-11RA ANTIBODIES” (Lassen Therapeutics 1, Inc., priority 2021, published 2024).

This assay deals with T1, human IL-11Rα (human, UniProt Q14626 23-363, limits assumed).
T1 construct: Protein coated on ELISA plates and used in solution for BLI; also called hIL-11Rα; hIL-11R
T1 sequence: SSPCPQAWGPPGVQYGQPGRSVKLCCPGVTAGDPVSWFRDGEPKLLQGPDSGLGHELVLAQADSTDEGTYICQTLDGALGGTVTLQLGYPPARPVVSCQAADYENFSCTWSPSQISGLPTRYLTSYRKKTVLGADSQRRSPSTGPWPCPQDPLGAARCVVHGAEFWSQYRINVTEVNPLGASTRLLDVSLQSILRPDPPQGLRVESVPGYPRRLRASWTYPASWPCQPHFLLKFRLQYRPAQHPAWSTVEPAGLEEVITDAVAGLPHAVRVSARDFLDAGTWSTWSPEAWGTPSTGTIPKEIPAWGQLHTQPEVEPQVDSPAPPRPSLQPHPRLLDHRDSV
The experiment in a line: competitive ELISA, IL-11R coated on plate; competitor: biotinylated 8E2 (0.1 µg/mL); competing against 8E2-bio. The procedure:
Relative binding activity of the antibodies was tested by competitive ELISA using biotinylated mAbs 8E2 or TS7. Antibodies 8E2 and TS7 were biotinylated using sulfo-NHS Biotin (Thermo Fisher) per the manufacturer's instructions. IL-11R was coated onto ELISA plates (Nunc, MaxiSorp) at 2 μg/mL in PBS, and plates were blocked with 2% BSA in PBS. After washing the plate with water, antibodies to be tested were titrated across the plate in a final volume of 90 μL followed by addition of 10 μL of biotinylated 8E2 or biotinylated TS7, as indicated in Table E1 (0.1 μg/mL final concentration) to each well. Plates were incubated for 2 hours on a plate-shaker, followed by washing and addition of 100 μL/well of streptavidin-HRP (Jackson ImmunoResearch, 1/1000 dilution). After a further 1 hour incubation, plates were washed, developed with Ultra-TMB HRP substrate (Thermo Fisher), and stopped by the addition of 50 μL/well of 2 M sulfuric acid. Plates were read at 450 nm on an iD5 plate reader (Molecular Devices).

B1: mAb1 (antibody, V domains shown)
VH: EVQLLESGGGLVQPGGSLRLSCAASGFTFSWYSMTWVRQAPGKGLEWVSSIVPSGGHTQYADSVKGRFTISRDNSKNTLYLQMNSLRAEDTAVYYCAKGPDWGSFDLWGRGTLVTVSS
VL: DIQMTQSPSSLSASVGDRVTITCQASQDINNYLNWYQQKPGKAPKLLIYDASNLQTGVPSRFSGSGSGTDFTFTISSLQPEDIATYYCQQHESQSPTFGPGTKVDIK
notes: Expressed as human IgG4 (S228P EU)
For B1, the IC50 was over 10 µg/mL.

As a reminder, the IC50 is the concentration at which inhibition is half-maximal. The low end stands for inhibition by little substance, the high end for a need for much substance.
